Test results taken from patent US8008547B2, “Glyphosate-N-acetyltransferase (GAT) genes” (E.I. duPont de Nemours, priority 2000, dated 2011).
Residue numbers refer to the chain shown, from its start.

B1: SEQ ID NO: 451: GAT polypeptide (protein)
chain: MIEVKPINAEDTYELRHKILRPNQPIEACMYETDLLRGAFHLGGFYGGKLISIASFHQAEHSDLEGQKQYQLRGMATLEGYREQKAGSTLIRHAEEILRKKGANLLWCNARTSASGYYKKLGFSEQGEVFDTPPVGPHILMYKRLT
modifications: 0_6H9
notes: GAT polypeptide
B2: SEQ ID NO: 463: GAT polypeptide (protein)
chain: B1 chain with I2L, Y31F, T33S, K101R, N104D, V129I, L145I
modifications: 11_3C6
notes: GAT polypeptide
B3: SEQ ID NO: 467: GAT polypeptide (protein)
chain: MIEVKPINAEDTYELRHRILRPNQPLEACMYESDLLRGSFHLGGFYRGKLISIASFHQAEHSELEGQKQYQLRGMATLEGFREQKAGSSLIRHAEEILRKRGADLLWCNARTTAAGYYKKLGFSEQGEIFDTPPVGPHILMYKRIT
modifications: 1_1H2
notes: GAT polypeptide
B4: SEQ ID NO: 468: GAT polypeptide (protein)
chain: B3 chain with L15I, E63D, F81Y, E83D, E96Q, K120R, I129V, R144K, I145L
modifications: 1_1H5
notes: GAT polypeptide
B5: SEQ ID NO: 469: GAT polypeptide (protein)
chain: B3 chain with L26I, H61Q, F81Y, E83D, S89T, R92K, R101K, T113S, K120R, I145L
modifications: 1_2A12
notes: GAT polypeptide
B6: SEQ ID NO: 471: GAT polypeptide (protein)
chain: MLEVKPINAEETYELRHKILRPNQPIEACMYETDLLRGSFHLGGFYRGQLISIASFHQAEHSDLQGQKQYQLRGMATLEGYREQKAGSTLIKHAEELLRKKGADLLWCNARTTAAGYYKKLGFSEQGEVFDTPPVGPHILMYKKIT
modifications: 1_2C4
notes: GAT polypeptide
B7: SEQ ID NO: 466: GAT polypeptide (protein)
chain: MIEVKPINAEETYELRHKILRPNQPIEACMYESDLLRGSFHLGGFYRGQLISIASFHKAEHSELQGQKQYQLRGMATLEGFREQKAGSSLIRHAEEILRNKGADLLWCNARTTASGYYKRLGFSEHGEVFETPPVGPHILMYKRIT
modifications: 1_1H1
notes: GAT polypeptide
B8: SEQ ID NO: 452: GAT polypeptide (protein)
chain: MIEVKPINAEDTYELRHKILRPNQPLEVCMYETDLLRGAFHLGGXYRGKLISIASFHQAEHSELQGQKQYQLRGMATLEGYRDQKAGSSLIKHAEQILRKRGADXLWCNARTSASGYYKKLGFSEQGEIFDTPPVGPHILMYKRLT
modifications: X: residue not identified in the source; ends and bridges not checked
notes: GAT polypeptide
B9: SEQ ID NO: 470: GAT polypeptide (protein)
chain: B8 chain with D11E, V28A, A39S, X45F, Q65E, Y81F, Q96E, X105L, D131E
modifications: 1_2B6
notes: GAT polypeptide
B10: SEQ ID NO: 461: GAT polypeptide (protein)
chain: B8 chain with K18R, X45F, R47G, S62P, E63D, K92R, I97L, X105L, D131E, L145I
modifications: 11_3C12
notes: GAT polypeptide
B11: SEQ ID NO: 465: GAT polypeptide (protein)
chain: B8 chain with I2L, K18R, L26I, X45F, R47G, Q96E, X105L, I129V, D131E
modifications: 1_1G12
notes: GAT polypeptide
B12: SEQ ID NO: 454: GAT polypeptide (protein)
chain: MLEVKPINAEDTYELRHRILRPNQPIEACMFESDLLRGAFHLGGFYRGKLISIASFHQAEHSELQGQKQYQLRGMATLEGYREQKAGSSLIRHAEEILRKRGADMLWCNARTSASGYYKKLGFSEQGEIFETPPVGPHILMYKRLT
modifications: 10_4F2
notes: GAT polypeptide
B13: SEQ ID NO: 472: GAT polypeptide (protein)
chain: MIEVKPINAEDTYELRHKILRPNQPLEACMYESDLLRSAFHLGGFYRGKLISIASFHKAEHSELQGQKQYQLRGMATLEGYRDQKAGSSLIRHAEEILRKRGADMLWCNARTSAAGYYKRLGFSEQGEVFDTPPVGPHILMYKRIT
modifications: 1_2D2
notes: GAT polypeptide
B14: SEQ ID NO: 275: GAT polypeptide (protein)
chain: MIEVKPINAEDTYEIRHRILRPNQPLEACMYETDLLGGTLHLGGYYRGKLISIASFHQAEHPELEGQKQYQLRGMATLEEYREQKAGSTLIRHAEELLRKKGADLLWCNARTSASGYYKKLGFSEQGGVYDIPPVGPHILMYKKLT
modifications: 10_20D10
notes: GAT polypeptide
B15: SEQ ID NO: 277: GAT polypeptide (protein)
chain: B14 chain with M30K, L40F, G128E, I132T
modifications: 10_2B8
notes: GAT polypeptide
B16: SEQ ID NO: 276: GAT polypeptide (protein)
chain: B14 chain with L40F, I51V, E80G, G128E, I132T
modifications: 10_23F2
notes: GAT polypeptide
B17: SEQ ID NO: 447: GAT polypeptide (protein)
chain: MLEVKPINAEDTYELRHRILRPNQPIEACMYESDLLRGALHLGGFYRGKLISIASFHQAEHSDLQGQKQYQLRGMATLEGFRDQKAGSSLIRHAEQILRKRGADLLWCNARTSASGYYKKLGFSEQGKVFDTPPVGPHILMYKRIT
modifications: 0_6B4
notes: GAT polypeptide
B18: SEQ ID NO: 458: GAT polypeptide (protein)
chain: B8 chain with L26I, T33S, X45F, S62P, E63D, X105L, I129V, D131E
modifications: 11_3A11
notes: GAT polypeptide
B19: SEQ ID NO: 464: GAT polypeptide (protein)
chain: B8 chain with K18R, L26I, X45F, E63D, D83E, X105L, I129V
modifications: 11_3D6
notes: GAT polypeptide
B20: SEQ ID NO: 450: GAT polypeptide (protein)
chain: B12 chain with L2I, F31Y, F45Y, Y81F, S89T, E96Q, E131D, L145I
modifications: 0_6F2
notes: GAT polypeptide
B21: SEQ ID NO: 459: GAT polypeptide (protein)
chain: B12 chain with S33T, E63D, Y81F, S89T, M105L, K120R, E131D
modifications: 11_3B1
notes: GAT polypeptide
B22: SEQ ID NO: 455: GAT polypeptide (protein)
chain: B8 chain with K18R, L26I, X45F, Y81F, D83E, K92R, X105L
modifications: 10_4F9
notes: GAT polypeptide
B23: SEQ ID NO: 462: GAT polypeptide (protein)
chain: B17 chain with L2I, R18K, F45Y, D63E, F81Y, D83E, R92K, Q96E, K128E
modifications: 11_3C3
notes: GAT polypeptide
B24: SEQ ID NO: 453: GAT polypeptide (protein)
chain: B1 chain with K18R, A28V, G47R, E65Q, E96Q, K101R, N104D, L145I
modifications: 10_4D5
notes: GAT polypeptide
B25: SEQ ID NO: 449: GAT polypeptide (protein)
chain: B17 chain with L2I, L40F, F45Y, K128E, D131E
modifications: 0_6D11
notes: GAT polypeptide
B26: SEQ ID NO: 460: GAT polypeptide (protein)
chain: B12 chain with L2I, F45Y, E83D, E96Q, I129V, E131D, L145I
modifications: 11_3B5
notes: GAT polypeptide
B27: SEQ ID NO: 456: GAT polypeptide (protein)
chain: B12 chain with L2I, F45Y, E63D, E83D, E96Q, M105L, E131D
modifications: 10_4G5
notes: GAT polypeptide

Assay: Standard protocol for determination of kcat and KM (continuous spectrophotometric assay, Acetyl CoA hydrolysis at 235 nm)
Assay type: biochemical
Details: purified protein; about 23° C.; 20 mM HEPES pH 6.8, 10% ethylene glycol, 0.2 mM acetyl CoA
Method in brief: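 KM from initial rates over 0.125–10 mM glyphosate, fitted by Lineweaver-Burke transformation of Michaelis-Menten; kcat/KM computed as kcat divided by KM. Continuous spectrophotometric read of acetyl-CoA hydrolysis at 235 nm.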

B1 and B2 are within 1.5-fold of each other in Kcat: 3.8 s⁻¹ for the first, 3.074 s⁻¹ for the second.

Going from B3 to B4, the Kcat falls from 2.73 s⁻¹ to 1.57 s⁻¹ (1.7-fold).

B5 and B6 are within 1.5-fold of each other in Kcat: 3.82 s⁻¹ for the first, 3.22 s⁻¹ for the second.

Compared with B7, B8 is 4.2-fold lower in Kcat: 4.85 s⁻¹ for the first, 1.16 s⁻¹ for the second.

Compared with B9, B10 is 2.8-fold lower in Kcat: 2.3 s⁻¹ for the first, 0.8178 s⁻¹ for the second.

Going from B11 to B12, the Kcat rises from 0.9747 s⁻¹ to 3.8507 s⁻¹ (4-fold).

B13 and B14 are within 1.5-fold of each other in Kcat: 2.07 s⁻¹ for the first, 1.44 s⁻¹ for the second.

B15 and B16 are within 1.5-fold of each other in Kcat: 1.807 s⁻¹ for the first, 1.688 s⁻¹ for the second.

First: B17
Second: B18
The Kcat of the first is 4.5-fold higher: 4.2 s⁻¹ for the first, 0.9277 s⁻¹ for the second.

First: B19
Second: B20
The Kcat of the first is 3.2-fold lower: 0.922 s⁻¹ for the first, 2.92 s⁻¹ for the second.

Compared with B21, B22 is 4-fold lower in Kcat: 3.6662 s⁻¹ for the first, 0.9232 s⁻¹ for the second.

First: B23
Second: B24
The Kcat of the first is 2.6-fold higher: 3.567 s⁻¹ for the first, 1.379 s⁻¹ for the second.

B25 and B26 are within 1.5-fold of each other in Kcat: 3.53 s⁻¹ for the first, 3.2435 s⁻¹ for the second.

Molecule B27 has a Kcat of 2.9442 s⁻¹.

Same assay, conditions: purified protein; about 23° C.; pH 6.8; 0.2 mM acetyl CoA; glyphosate 0.125 to 10 mM

First: B1
Second: B2
The Km of the first is 2.2-fold higher: 470 µM for the first, 210 µM for the second.

First: B3
Second: B4
The Km of the first is 3.4-fold lower: 440 µM for the first, 1500 µM for the second.

Compared with B5, B6 is 1.6-fold lower in Km: 1300 µM for the first, 800 µM for the second.

Going from B7 to B9, the Km falls from 1800 µM to 580 µM (3.1-fold).

First: B12
Second: B13
The Km of the first is 6-fold lower: 200 µM for the first, 1200 µM for the second.

B14 and B15 are within 1.5-fold of each other in Km: 1600 µM for the first, 1100 µM for the second.

B16 and B17 are within 1.5-fold of each other in Km: 900 µM for the first, 800 µM for the second.

First: B20
Second: B21
The Km of the first is 1.9-fold lower: 340 µM for the first, 630 µM for the second.

First: B23
Second: B25
The Km of the first is 2-fold lower: 220 µM for the first, 440 µM for the second.

Going from B26 to B27, the Km rises from 260 µM to 580 µM (2.2-fold).
